# Biological target: recombinant CD47 protein (Homo sapiens, UniProt Q08722)
# Experiment: SPR, CD47 conjugated to CM5 chip by EDC-NHS
# Type: binding
# Settings: CM5 chip, CD47 250 RU, 30 µL/minutes
# Procedure: Specifically, the recombinant CD47 protein was conjugated to the surface of the CM5 chip by a target SPR reaction of 250 RU through an EDC-NHS reaction to be used, and for HBS-P, the sensogram obtained through a process of association for 3 minutes and dissociation for 10 minutes at a flow rate of 30 µL/minutes was analyzed with the BiaEvaluation software using a 1:1 binding model and global fitting.
# Sequence of recombinant CD47 protein (Q08722 19-323): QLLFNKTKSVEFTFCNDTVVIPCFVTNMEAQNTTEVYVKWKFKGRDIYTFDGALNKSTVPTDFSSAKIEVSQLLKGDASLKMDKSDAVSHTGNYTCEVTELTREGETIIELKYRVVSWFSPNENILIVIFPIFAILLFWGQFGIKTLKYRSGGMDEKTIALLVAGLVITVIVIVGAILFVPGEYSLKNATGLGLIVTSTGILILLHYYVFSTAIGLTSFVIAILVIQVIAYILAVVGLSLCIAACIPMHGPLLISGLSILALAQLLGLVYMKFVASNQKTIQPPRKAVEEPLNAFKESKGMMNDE
substance,measurement,value
"Sirpα: pure Sirpα (SEQ ID NO: 25), water-soluble domain of the original CD47 ligand [reference compound]",ka,610000 M⁻¹ s⁻¹
same,kd,0.37 s⁻¹
